# Literature values, collected in patent US3940480A, “Process for production of stabilized powdery secretin preparation by lyophilization” (priority 1972, dated 1976).
# Settings: kept at -20°C
substance,measurement,value
Secretin,Hormone activity of secretin kept at low temperature (in words),gradually loses its hormone activity
